Entries after “also recorded” stand apart in the source; their conditions may differ.
What was measured:
[1] = tested on: AdHCN2 infected culture; assay: Modulation of spontaneous rate by drugs in an AdHCN2 infected culture; assay type: cell-based, rat; details: superfusion with drug; control record of same culture 48, 54 and 96 beats/min respectively
[2] = tested on: Xenopus oocytes; assay: Two-microelectrode voltage clamp of mHCN2 and mE324A expressed in Xenopus oocytes; assay type: cell-based, Xenopus laevis
Experimental: Oocytes were prepared from mature female Xenopus laevis in accordance with an approved protocol as previously described (Yu et al., 2004).
For expression of HCN in Xenopus oocytes, oocytes were injected with 5 ng of cRNA made from mouse wild-type mHCN2 and mutant mHCN2 (E324A) plasmids. Injected oocytes were incubated at 18° C. for 24-48 h prior to electrophysiological analysis.
For measurements in Xenopus oocytes, oocytes were voltage-clamped using a two-microelectrode voltage clamp technique. The extracellular recording solution (OR2) contained (in mM): NaCl, 80; KCl, 2; MgCl2, 1; and Na-HEPES, 5 (pH 7.6). For the recording of steady state activation of expressed Wt mHCN2, currents were elicited by 2-s long hyperpolarizing pulses between −30 mV and −160 mV with 10 mV increments, followed by a 1-s depolarizing pulse to +15 mV. The holding potential was −30 mV. As to the mHCN2 (E324A), currents were elicited by 3-s-long hyperpolarizing pulses between +20 mV and −130 mV with 10 mV increments, followed by a 1 second depolarizing pulse to +50 mV. The holding potential was +20 mV. To construct the current/voltage relationship for wildtype (Wt) mHCN2, the cell was held at […], the current was elicited by a 2-s hyperpolarizing voltage step to −140 mV to saturate activation, and followed by 2-s depolarizing voltage steps between […] and +50 mV in 10 mV increments. For mHCN2 (E324A), the cell was held at +20 mV, current was elicited by a 1.5-s hyperpolarizing voltage step to −110 mV to saturate activation, and then followed by 1.5-s depolarizing voltage steps between −80 mV and +50 mV in 10 mV increments for the recording of tail currents. To record the current amplitudes for Wt mHCN2, the current was evoked by applying a 3-s hyperpolarizing voltage pulse to −120 mV from a holding potential of −30 mV. For mHCN2 (E324A), the current was evoked by applying a 3-s hyperpolarizing voltage pulse to −120 mV from a holding potential of +20 mV.

[3] = tested on: cell-free patches from Xenopus oocytes; details: binding of cAMP to the CNBD; cited from earlier work

Molecule: CCN(c1ccccc1)c1cc(=NC)n(C)c(C)n1.Cl [ZD-7288]
- spontaneous rate during drug exposure [1]: 78 beats/min

Molecule: C[N+](C)(C)CCOC(N)=O [carbachol]
- spontaneous rate during drug exposure [1]: 45 beats/min

B1: mE324A: mHCN2 with glutamate at position 324 mutated to alanine (protein, UniProt O88703 1-863, looked up, variant E324A)
Potassium/sodium …: MDARGGGGRPGDSPGTTPAPGPPPPPPPPAPPQPQPPPAPPPNPTTPSHPESADEPGPRARLCSRDSACTPGAAKGGANGECGRGEPQCSPEGPARGPKVSFSCRGAASGPSAAEEAGSEEAGPAGEPRGSQASFLQRQFGALLQPGVNKFSLRMFGSQKAVEREQERVKSAGAWIIHPYSDFRFYWDFTMLLFMVGNLIIIPVGITFFKDETTAPWIVFNVVSDTFFLMDLVLNFRTGIVIEDNTEIILDPEKIKKKYLRTWFVVDFVSSIPVDYIFLIVEKGIDSEVYKTARALRIVRFTKILSLLRLLRLSRLIRYIHQWAEIFHMTYDLASAVMRICNLISMMLLLCHWDGCLQFLVPMLQDFPSDCWVSINNMVNHSWSELYSFALFKAMSHMLCIGYGRQAPESMTDIWLTMLSMIVGATCYAMFIGHATALIQSLDSSRRQYQEKYKQVEQYMSFHKLPADFRQKIHDYYEHRYQGKMFDEDSILGELNGPLREEIVNFNCRKLVASMPLFANADPNFVTAMLTKLKFEVFQPGDYIIREGTIGKKMYFIQHGVVSVLTKGNKEMKLSDGSYFGEICLLTRGRRTASVRADTYCRLYSLSVDNFNEVLEEYPMMRRAFETVAIDRLDRIGKKNSILLHKVQHDLSSGVFNNQENAIIQEIVKYDREMVQQAELGQRVGLFPPPPPPQVTSAIATLQQAVAMSFCPQVARPLVGPLALGSPRLVRRAPPGPLPPAASPGPPAASPPAAPSSPRAPRTSPYGVPGSPATRVGPALPARRLSRASRPLSASQPSLPHGVPAPSPAASARPASSSTPRLGPAPTARTAAPSPDRRDSASPGAASGLDPLDSARSRLSSNL
- activation threshold [2]: around −30 mV
- slope (s) with cAMP ([2]; 8-Br-cAMP 1 mM): 19.7 mV
- Vh with cAMP ([2]; 8-Br-cAMP 1 mM extracellular): −48.9 mV
- effect of Cs+ on inward current ([2]; Cs+ 5 mM): blocked; also recorded: large inhibition
- slope (s), control ([2]; control): 15.2 mV
- reversal potential of IHCN2 ([2]; fully activated current/voltage relation): ~−40 mV
- half maximal activation (Vh), control ([2]; oocytes, control): −57.3 mV
- induced current ([2]; single voltage pulse to −120 mV): 579.8±18.2 nA

B2: HCN1: mouse HCN1 channel isoform (protein)
chain: MEGGGKPNSASNSRDDGNSVFPSKAPATGPVAADKRLGTPPGGGAAGKEHGNSVCFKVDGGGGEEPAGSFEDAEGPRRQYGFMQRQFTSMLQPGVNKFSLRMFGSQKAVEKEQERVKTAGFWIIHPYSDFRFYWDLIMLIMMVGNLVIIPVGITFFTEQTTTPWIIFNVASDTVFLLDLIMNFRTGTVNEDSSEIILDPKVIKMNYLKSWFVVDFISSIPVDYIFLIVEKGMDSEVYKTARALRIVRFTKILSLLRLLRLSRLIRYIHQWEEIFHMTYDLASAVVRIFNLIGMMLLLCHWDGCLQFLVPLLQDFPPDCWVSLNEMVNDSWGKQYSYALFKAMSHMLCIGYGAQAPVSMSDLWITMLSMIVGATCYAMFVGHATALIQSLDSSRRQYQEKYKQVEQYMSFHKLPADMRQKIHDYYEHRYQGKIFDEENILSELNDPLREEIVNFNCRKLVATMPLFANADPNFVTAMLSKLRFEVFQPGDYIIREGAVGKKMYFIQHGVAGVITKSSKEMKLTDGSYFGEICLLTKGRRTASVRADTYCRLYSLSVDNFNEVLEEYPMMRRAFETVAIDRLDRIGKKNSILLQKFQKDLNTGVFNNQENEILKQIVKHDREMVQAIPPINYPQMTALNCTSSTTTPTSRMRTQSPPVYTATSLSHSNLHSPSPSTQTPQPSAILSPCSYTTAVCSPPIQSPLATRTFHYASPTASQLSLMQQPQQQLPQSQVQQTQTQTQQQQQQQQQQQQQQQQQQQQQQQQQQQQQQQQQQQQQPQTPGSSTPKNEVHKSTQALHNTNLTKEVRPLSASQPSLPHEVSTLISRPHPTVGESLASIPQPVAAVHSTGLQAGSRSTVPQRVTLFRQMSSGAIPPNRGVPPAPPPPAAVQRESPSVLNTDPDAEKPRFASNL
- shift of activation curve to more positive potentials by cAMP [3]: 4 mV
